Experimental findings from patent US20230272047A1 (University of Washington, published 2023) are described below.

Positions count from the first letter of the chain named. Names may count otherwise.

Assay [1] addresses T1, human transferrin receptor 1 ectodomain, biotinylated (human, UniProt P02786 89-760, biotinylated in vitro (Avidity kit) at the C-terminal Avi tag).
T1 construct: extracellular domain; Expressed as IgK-sFLAG-His-Sen-TEV-TfR1-his-Avi in the Daedalus system; The N-terminal expression tag was cleaved with TEV; In yeast display it was detected with streptavidin-phycoerythrin; also called hTfR; hTfR ectodomain; not shown: C-terminal his-Avi tag (printed 'his-Avin')
The assay is described as follows: single concentration biolayer interferometry (1 µM design). A general note: Biolayer interferometry detects binding as a change in optical thickness at a sensor tip.

For assay [2], the target named is T1, human transferrin receptor 1 …. Description: biolayer interferometry, biotinylated hTfR on streptavidin biosensors.
Assay [3] has the same target. The assay is described as follows: single concentration biolayer interferometry, biotinylated hTfR on streptavidin biosensors.

T1 sequence (P02786 89-760): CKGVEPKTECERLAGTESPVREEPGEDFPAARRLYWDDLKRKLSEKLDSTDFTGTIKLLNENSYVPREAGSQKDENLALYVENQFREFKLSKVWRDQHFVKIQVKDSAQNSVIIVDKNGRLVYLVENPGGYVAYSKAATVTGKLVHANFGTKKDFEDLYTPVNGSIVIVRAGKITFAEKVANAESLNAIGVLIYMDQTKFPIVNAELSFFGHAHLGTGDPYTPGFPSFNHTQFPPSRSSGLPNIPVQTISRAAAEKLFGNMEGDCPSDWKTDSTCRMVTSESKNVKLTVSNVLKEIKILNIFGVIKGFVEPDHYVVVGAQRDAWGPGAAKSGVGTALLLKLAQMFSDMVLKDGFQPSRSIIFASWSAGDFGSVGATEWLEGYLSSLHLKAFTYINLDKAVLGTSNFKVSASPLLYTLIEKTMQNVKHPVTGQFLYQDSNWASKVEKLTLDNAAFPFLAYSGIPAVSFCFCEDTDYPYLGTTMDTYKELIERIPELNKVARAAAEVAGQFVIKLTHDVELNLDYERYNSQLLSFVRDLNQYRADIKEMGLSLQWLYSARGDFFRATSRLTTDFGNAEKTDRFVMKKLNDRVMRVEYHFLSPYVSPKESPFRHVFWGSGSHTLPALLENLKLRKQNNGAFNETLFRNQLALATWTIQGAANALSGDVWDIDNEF

B1: 3DS23 (designed binder)
chain: DEEEEEKEEIRRQLDEARERGVSEEEAAIEVAQNFNFIVVVVVDSEEEAERVAEYVRREVPRVHIVIVQNVVFFRVDSDEDARRVWELAQKAQ
notes: Expressed in E. coli; the N-terminal His tag was cleaved with TEV
For the molecule B1, in assay [1], the binding result is listed as “binds”.

B2: 2DS25 (purified from E. coli) (designed binder)
chain: DEEEIQKAIEELLRKGVSEEEAAIIIAQRFNVAVVVVVQDERQAKHISEYIRRYIPEADVILFANIVVIKVETEELRKRVWEAAQKAY
notes: Expressed in E. coli with an N-terminal histidine tag and a TEV site; Eluted as a monomer on SEC
B2: the binding result in assay [2] is reported as “binds”.

B3: 2DS25_KO (W81A/Q85A) (designed binder)
chain: B2 chain with W81A, Q85A
Regarding B3, the binding result in assay [3] is given as “no binding”.

B4: 3DS6 (designed binder)
chain: DKEDELRELAKELVREYEKRGVSEEEIALLVALAANFAVVIVFDNEEQAERAAKYIKKKLPSAVIVIFNNFVFVYVDSREDERIAWELAQEAQ
notes: as for B1
With B4, in assay [1], the binding result is on record as “binds”.

B5: 3DS10 (designed binder)
chain: TEEERLREEVKRVAQRAEEEGANEEEIAQILLLALNAAVVVVVESEEQAERVAQYIREVVPEALVIVYNNFVVIFVESDEAARRAWEAAERAQ
notes: as for B1
Take B5: in assay [1], the binding result is listed as “binds”.

B6: 3DS11 (designed binder)
chain: DLEERVRKAVNEAQEEAKRNNLDENEAALEAALRLGVVVLVVVDSEEQAERVAKYVHKLVPSVRVVIYNNLVFFHVDTDEEARRVYEAAERAQ
notes: as for B1
Turning to B6, the binding result in assay [1] was “binds”.

B7: 3DS2 (designed binder)
chain: TEDEEYEERVREALEEAKKKNEHNEELVAQIALLILGAVVVIVAESEEAAKRAAQYVRERVPNAKVYVFDNFVFVHAESREDQEAAWRAAQEAM
notes: as for B1
On to B7, for which the binding result in assay [1] is recorded as “binds”.
